Assay results reported in the nanobody polyreactivity screen of Harvey et al. (2022).

experiment: yeast display, Sf9 membrane polyspecificity reagent, FACS + sequencing; frameworks hold sequencing errors
In short: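 Nanobodies from a synthetic yeast display library (Saccharomyces cerevisiae BJ5465), induced 36–48 hours with galactose, were stained 1 hour at 4 °C with 10% biotinylated, detergent-solubilized Sf9 membrane reagent, enriched on streptavidin microbeads, then FACS-sorted. Anti-HA (expression) and streptavidin (reagent binding) fluorescence set low and high (top ~1%) gates. Polyreactivity labels come from the gate of origin. Genes were colony-PCR amplified, MiSeq 2 × 250 sequenced and filtered by CDR length.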

| Sequence | polyreactivity (PSR sort gate) |
| --- | --- |
| QVQLVESGGGLVQAGGSLRLSCAASGFIFRYYAMGWYRQAPGKERELVAAISGSGGSTYYADSVKGRFTISRDNAKNTVYLQMNSLKPEDTAVYYCNKGRGRVYGIYDYWGQGTQVTVSS | high polyreactivity |
| QVQLVESGGGLVQAGGSLRLSCAASGFIFRYYAMGWYRQAPGKERELVAAISNNAGRTYYADSVKGRFTISRDNAKNTVYLQMNSLKPEDTAVYYCAARVWTGRKYDYWGQGTQVTVSS | high polyreactivity |
| QVQLVESGGGLVQAGGSLRLSCAASGFIFRYYAMGWYRQAPGKERELVAAISWSGGSTYYADSVKGRFTISRDNAKNTVYLQMNSLKPEDTAVYYCNAVTTYGEYDYWGHGTQVTVSS | high polyreactivity |
| QVQLVESGGGLVQAGGSLRLSCAASGFIFRYYAMGWYRQAPGKERELVAAISWSGTRTFYADSVKGRFTISRDNAKNTVYLQMNSLKPEDTAVYYCAAETTGYDSYIQYEYWGQGTQVTVSS | high polyreactivity |
| QVQLVESGGGLVQAGGSLRLSCAASGFIFRYYAMGWYRQAPGKERELVAAITRGGSTYYADSVKGRFTISRDNAKNTVYLQMNSLKPEDTAVYYCAARLYTQYYYWGQGTQVTVSS | high polyreactivity |
| QVQLVESGGGLVQAGGSLRLSCAASGFIFRYYAMGWYRQAPGKERELVAGISSSGASTYYADSVKGRFTISRDNAKYTVYLLMNSLKPEDTAVYYCAARRQRDRYGYWGQGTQVTVSS | high polyreactivity |
| QVQLVESGGGLVQAGGSLRLSCAASGFIFRYYAMGWYRQAPGKERELVARINRSGGSTYYADSVKGRFTISRDNAKNTVYLQMNSLKPEDTAVYYCAKDRTSYYSWYGYWGQGTQVTVSS | high polyreactivity |
| QVQLVESGGGLVQAGGSLRLSCAASGFIFRYYAMGWYRQAPGKERVLVARITPRGGRTYYADSVKGRFTISRDNAKNTVYLQMNSLKPEDTAVYYCAAVYPVLHEFGYWGQGTQVTVSS | high polyreactivity |
| QVQLVESGGGLVQAGGSLRLSCAASGFIFRYYAMGWYRQAPGKETELVAAINRGGGTNYADSVKGRFTISRDNAKNTVYLQLNSLKPEDTAVYYCAAVIRTVRERYGYWGQGTQVTVSS | high polyreactivity |
| QVQLVESGGGLVQAGGSLRLSCAASGFIFRYYDMGWYRQAPGKERELVAAISWRGGRTYYADSVKGRFTISRDNAKNTVYLQMNSLKPEDTAVYYCAAGFSLWTYPKPYGEDYWGQGTQVTVSS | high polyreactivity |
| QVQLVESGGGLVQAGGSLRLSCAASGFIFRYYTMRWYRQAPGKERELVAVITSGGTTYYADSVKGRFTISRDNAMNTVYLQMNSLKPEDTAVSYCAADYRPRLYGVGVDYWGQGTQVTVSS | low polyreactivity |
| QVQLVESGGGLVQAGGSLRLSCAASGFIFSDYAMGWYRQAPGKERELVAGISDSGGDTYYADSVKGRFTISRDNAKYTVYFQMYSLKPDDTAVYYCAADVELWVFRGQQYDYWGQGTQVTVSS | low polyreactivity |
| QVQLVESGGGLVQAGGSLRLSCAASGFIFSFYAMGWYRQAPGKESELVAAITSSGATTYYADSVKGRFTISRDNAKNTVYLQMNSLKPVDTAVYYCNAVYRRDTGYYRYYYWGQGTQVTVSS | high polyreactivity |
| QVQLVESGGGLVQAGGSLRLSCAASGFIFSIYALGWYRQAPGKERELVAAISKSGGRTYYADSVKGRFTISRDNAKNTVYLQMNSLKPEDTAVYYCAVDSYYKYDYWGQGTQVTVSS | high polyreactivity |
| QVQLVESGGGLVQAGGSLRLSCAASGFIFSIYAMGLYRQAPGTERELVAGIDNGGGTYYADSVKGRFTISRDNAKNTVYLQMNSLKPEDTAVYYCAADTYSIGELYDYWGQGTQVNVSS | low polyreactivity |
| QVQLVESGGGLVQAGGSLRLSCAASGFIFSKNAMGWYRQAPGKERELVAAISTRGGSTYYADSVKGRFTISRDNAKNTVYLQMNSLKPEDTAVYYCNKEWYPYKHNYWGQGTQVTVSS | low polyreactivity |
| QVQLVESGGGLVQAGGSLRLSCAASGFIFSNNAMGWYRQAPGKERELVASISSSSRTYYADSVKGRFTISRDNAKNTVYLQMNSLKPEDTAVYYCAAVFRWWGTRVDYWGQGTQVTVSS | high polyreactivity |
| QVQLVESGGGLVQAGGSLRLSCAASGFIFSNYAMGWYRQAPGKERELVAAISWSGTRTYYADSVKGRFTISRDNAKNTVYLQMNSLKPEDTAVYYCAAYGVYLYDYWGQGTQVTVSS | low polyreactivity |
| QVQLVESGGGLVQAGGSLRLSCAASGFIFSQYAMGWYRQAPGKERELVAAISYSGGSTYYADSVKGRFTISRDNAKNTVYLQMNSLKPEDTAVYYCAVSGRSYYRSDYWGQGTQVTVSS | high polyreactivity |
| QVQLVESGGGLVQAGGSLRLSCAASGFIFSRNAMGWYRQAPGKERELVAVISTRGGSTYYADSVKGRFTISRDNAKNTVYLQMNSLKPEDTAVYYCAARRTRGYEYWGQGTQVTVSS | high polyreactivity |
| QVQLVESGGGLVQAGGSLRLSCAASGFIFSRNAMGWYRQAPGKERELVDRISRSGGRTYYADSVKGRFTISRDNAKNTVYLQMNSLKPEDTAVYYCATDHVRQSPYDYWGQGTQVTVSS | high polyreactivity |
| QVQLVESGGGLVQAGGSLRLSCAASGFIFSRNVMGWYRQAPGKERELVAAISRSGGSTYYADSVKGRFTISRDNAKNTVYLQMNSLKPEDTAVYYCAASRINYVYLLKGDYWGQGTQVTVSS | high polyreactivity |

| Sequence | polyreactivity (PSR sort gate) |
| --- | --- |
| QVQLVESGGGLVQAGGSLRLSCAASGFIFSRYAMGWARQAPGKERELVAAIRFSGSMTYYADSVKGRFTISRDTAKNTVYLQMNSLKPEDTAVYYCAAALTYFKRVYYWGQGTQVTVSS | high polyreactivity |
| QVQLVESGGGLVQAGGSLRLSCAASGFIFSRYAMGWYRQAPGKERELVAYITRRGGRTFYADSVKGRFTISRDNAKNTVYLQMNSLKPEDTAVYYCGADAYGLTLFYVFSYDYWGQGTQVTVSS | high polyreactivity |
| QVQLVESGGGLVQAGGSLRLSCAASGFIFSRYTMGWYRQAPGKERELVAAISKRGGSTYYADSVKGRFTISRDNAKNTVYLQMNSLKPEDTAVYYCAADRLPSGSLVEYWGQGTQVTVSS | high polyreactivity |
| QVQLVESGGGLVQAGGSLRLSCAASGFIFSRYTMGWYRQAPGKERELVAAITWSGGSTYYADSVKGRFTISRDNAKNTVYLQMNSLKPVDTAVYYCAAARISVVQGDYWGQGTQVTVSS | high polyreactivity |
| QVQLVESGGGLVQAGGSLRLSCAASGFIFSSNAMGWYRQAPGKERELVARITWSDGSTYYADSVKGRFTISRDNAKNTVYLQMNSLKPEDTAAYYCAKGRDATHYEYYLYSMDYWGQGTQVTVSS | low polyreactivity |
| QVQLVESGGGLVQAGGSLRLSCAASGFIFSSYAMGWYIQAPGKERELVAAISRSGGRTYYADSVKGRFTISRDNAKNTVYLKMNSLKPEDTAVYYCAAKWLGTAGDDYWGQGTQVTVSS | high polyreactivity |
| QVQLVESGGGLVQAGGSLRLSCAASGFIFSSYAMGWYRQAPGKERELVAAITSRGGSTYYADSVKGRFTISRDNAKNTVYLQMNSLKPEDTAVYYCNAVVTKYAKSRFLYYYWGQGTQVTVSS | high polyreactivity |
| QVQLVESGGGLVQAGGSLRLSCAASGFIFSVYAMGWYRQAPGKERELVAAITGNGVSTYYADSVKGRFTISRDNAKNTVYLQMISLKPEDTAVYSCATYGRRWYSSRRLDYWGQGTQVTVSS | low polyreactivity |
| QVQLVESGGGLVQAGGSLRLSCAASGFIFSYNVMGWYRQAPGKERELVAAISSGGGRTYYADSVKGRFTISRDNAKNTVYLQMNSLKPEDTAVYYCNAYRLSRVQLYYWGQGTQVTVSS | high polyreactivity |
| QVQLVESGGGLVQAGGSLRLSCAASGFIFSYYAMGGYRQAPGKERELVAAITSGGSTNYADSVKGRLTISRDNAKNTFYLQMNSLKPEDTAVYYCAAERGDTAYLKYDYCGQGTQVTVSS | low polyreactivity |
| QVQLVESGGGLVQAGGSLRLSCAASGFIFSYYAMGWYRQAPGKERELVAAISISGGSTYYADSVKGRFTISRDNAKTTVYLQMNSLKPEDTAVYYCNKAPRYPYGGYDYWGQGTQVTVSS | low polyreactivity |
| QVQLVESGGGLVQAGGSLRLSCAASGFIFSYYAMGWYRQAPGKERELVAAISKTGGNTFYADSVKGRFTISRDNAKNTVYLQMNSLKPEDTGVYYCNALRGDWRDMGYWGQGTQVTVSS | high polyreactivity |
| QVQLVESGGGLVQAGGSLRLSCAASGFIFSYYAMGWYRQAPGKERELVAAISRSGGSTYYADSVKGRFTISRDNAKNTVYLQMNSLKPEDTAVYYCAARYWRRYGQGYRYDYWGQGTQVTVSS | high polyreactivity |
| QVQLVESGGGLVQAGGSLRLSCAASGFIFSYYAMGWYRQAPGKERELVAAITWDGGSTYYADSVKGRFTISRDYANNTVYLLLNSLKPEDTAVYYCNAYYYYRRPLEGGYWGQGNQVTVSS | low polyreactivity |
| QVQLVESGGGLVQAGGSLRLSCAASGFIFSYYAMGWYRQAPGKERELVAGITRSGGSTYYADSVKGRFTISRDNAKNTVYLQMNSLKPEDTAVYYCAAGYFYHFSRYTNRYGYWGQGTQVTVSS | high polyreactivity |
| QVQLVESGGGLVQAGGSLRLSCAASGFIFSYYAMGWYRQAPGKEREWVAAISKTGGNTYYADSVKGRFTISRDNAKKTVYLQMNSLKPEDTAVYYCNALRGDWRDMGYCGQGTQVTVSS | high polyreactivity |
| QVQLVESGGGLVQAGGSLRLSCAASGFIFSYYAMVWYRQAPGTERELVAAISSSGSRTYYADSVKGRFTISRDNAKNTVYLQMNSLKPEDTAVYYCAARGAAKYGYWGQGTQVTVSS | high polyreactivity |
| QVQLVESGGGLVQAGGSLRLSCAASGFIFTDNAMGRYRHAPRTERELVAAINLSGTRTYYADSVKGRFTISRDNAKNTVYLQMNSLKPEDTAVYYCNKSEDYTYDYWGQGTQVTVSS | low polyreactivity |
| QVQLVESGGGLVQAGGSLRLSCAASGFIFTDYAMGWYRQAPGKEREFVAAIDWSGGNTYYADSVKGRFTISRDHAKNTVYLQMNRLKPEDTAVYYCNAGDYFVRFVYYWDDERYDYWGQGTQVTVSS | low polyreactivity |
| QVQLVESGGGLVQAGGSLRLSCAASGFIFTFYAMGWYRQAPGKEREFVASIDWGDGSTYYADSVKGRFTISRDNAKNTVYLQMNSLKPEDTAVYYCATDVYFLSSEYWGQGTQVTVSS | low polyreactivity |
| QVQLVESGGGLVQAGGSLRLSCAASGFIFTGNAMGWYRQAPGKERELVAAISKRGGRTYYADSVKGRFTISRDNAKNTVYLQMNSLKPEDTAVYYCAAVGYAYTYAEYYYWGQGTQVTVSS | high polyreactivity |
